Test results: patent publication US20220380463A1 (Adimab, published 2022)
Substitutions are numbered along the chain they refer to.

B1: SAD10318_P01_C01 (ADI-48575) (antibody, V domains shown)
VH: QVQLVQSGAEVKKPGASVKVSCKASGFNIKDYYMHWVRQAPGQRLEWMGWIDLENANTIYDAKFQGRVTITRDTSASTAYMELSSLRSEDTAVYYCARDAYHRYHYDVWGQGTLVTVSS
VL: DIVMTQSPDSLAVSLGERATINCKSSQSLLNAHTHKNYLAWYQQKPGQPPKLLIYWASTRESGVPDRFSGSGSGTDFTLTISSLQAEDVAVYYCKQSHSHRTFGGGTKVEIK
notes: IgG; also called Ab113
B2: SAD10318_P01_E01 (ADI-48577) (antibody, V domains shown)
VH: B1 VH with Y101H, H105F
VL: B1 VL with T34E, H35G
notes: IgG; also called Ab193
B3: SAD10318_P02_A05 (ADI-48595) (antibody, V domains shown)
VH: B1 VH with A9T, H105F, V108H
VL: B1 VL with A32S, H35G, H98Y, H100R
notes: IgG; also called Ab178
B4: SAD10318_P01_H03 (ADI-48591) (antibody, V domains shown)
VH: B1 VH with R98H, H102G, R103H, H105F
VL: B1 VL with H33R, H35G, K36H, S71R, H98Y, S99H
notes: IgG; also called Ab102
B5: SAD10318_P01_D02 (ADI-48584) (antibody, V domains shown)
VH: B1 VH with Y101H, H105F
VL: B1 VL with H33R, H35G, Y38H
notes: IgG; also called Ab3
B6: SAD10318_P02_D05 (ADI-48598) (antibody, V domains shown)
VH: B1 VH with A100H, H102G, R103H, H105F
VL: B1 VL with H33R, H35G, Y38H, H98Y, S99H
notes: IgG; also called Ab181
B7: SAD10318_P02_B05 (ADI-48596) (antibody, V domains shown)
VH: B1 VH with H102G, Y104H, H105F, V108H
VL: B1 VL with H35G, H98Y, H100R
notes: IgG; also called Ab179
B8: SAD10318_P01_D03 (ADI-48588) (antibody, V domains shown)
VH: B1 VH with A100H, H102G, R103H, H105F
VL: B1 VL with H35G, K36H
notes: IgG; also called Ab58
B9: SAD10318_P03_A09 (ADI-48608) (antibody, V domains shown)
VH: B1 VH with A100H, H102G, H105F, V108H
VL: B1 VL with H33R, H35G, K36H, Y38H, H98Y, S99H
notes: IgG; also called Ab203
B10: SAD10318_P01_F02 (ADI-48585) (antibody, V domains shown)
VH: B1 VH with Y101H, H102G, R103H, H105F
VL: B1 VL with H35G, Y38H
notes: IgG; also called Ab14
B11: SAD10318_P01_H01 (ADI-48580) (antibody, V domains shown)
VH: B1 VH with Y101H, H105F
VL: B1 VL with H35G, Y38H, H98Y, S99H
notes: IgG; also called Ab226
B12: SAD10318_P03_D08 (ADI-48604) (antibody, V domains shown)
VH: B1 VH with S75A, A100H, H105F, V108H
VL: B1 VL with H35G, Y38H, H98Y, H100R
notes: IgG; also called Ab198
B13: SAD10318_P01_F01 (ADI-48578) (antibody, V domains shown)
VH: B1 VH with H102G, R103H, H105F, V108H
VL: B1 VL with H35G, Y38H, H98Y, S99H
notes: IgG; also called Ab204
B14: SAD10318_P03_C09 (ADI-48609) (antibody, V domains shown)
VH: B1 VH with H105F, V108H
VL: B1 VL with H35G, Y38H, H98Y, S99H
notes: IgG; also called Ab205
B15: SAD10318_P01_D01 (ADI-48576) (antibody, V domains shown)
VH: B1 VH with H105F, V108H
VL: B1 VL with H35G, Y38H
notes: IgG; also called Ab182
B16: SAD10318_P02_C04 (ADI-48592) (antibody, V domains shown)
VH: B1 VH with K13E, Y101H, H105F
VL: B1 VL with H35G, K36H, H98Y, H100R
notes: IgG; also called Ab125
B17: SAD10318_P02_G06 (ADI-48600) (antibody, V domains shown)
VH: B1 VH with R98H, H102G, R103H, H105F
VL: B1 VL with N31H, A32T, H33R, H35G, H98Y, H100R
notes: IgG; also called Ab189
B18: SAD10318_P02_H05 (ADI-48599) (antibody, V domains shown)
VH: B1 VH with H102G, R103H, Y104H, H105F
VL: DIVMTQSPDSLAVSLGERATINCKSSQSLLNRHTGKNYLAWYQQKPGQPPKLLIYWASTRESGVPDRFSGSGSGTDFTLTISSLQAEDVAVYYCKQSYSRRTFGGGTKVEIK
notes: IgG; also called Ab185
B19: SAD10318_P01_G02 (ADI-48586) (antibody, V domains shown)
VH: B1 VH with R103H, H105F
VL: B1 VL with H33R, H35G, Y38H, H98Y
notes: IgG; also called Ab25
B20: SAD10318_P01_G01 (ADI-48579) (antibody, V domains shown)
VH: B1 VH with Y101H, H102G, R103H, H105F
VL: B1 VL with N31H, H35G
notes: IgG; also called Ab215
B21: SAD10318_P01_G03 (ADI-48590) (antibody, V domains shown)
VH: B1 VH with R98H, H102G, R103H, H105F
VL: B1 VL with H35G, K36H, H98Y, S99H
notes: IgG; also called Ab91
B22: SAD10318_P03_C08 (ADI-48603) (antibody, V domains shown)
VH: B1 VH with A100H, H102G, R103H, H105F
VL: B1 VL with N31H, H33R, H35G, Y38H
notes: IgG; also called Ab197
B23: SAD10318_P02_G04 (ADI-48593) (antibody, V domains shown)
VH: B1 VH with H102G, R103H
VL: B1 VL with N31H, H33R, H35G, H98Y, S99H
notes: IgG; also called Ab158
B24: SAD10318_P02_H04 (ADI-48594) (antibody, V domains shown)
VH: B1 VH with H105F, V108H
VL: B1 VL with N31H, H33R, H35G, K36H, H98Y, H100R
notes: IgG; also called Ab169
B25: SAD10318_P01_F03 (ADI-48589) (antibody, V domains shown)
VH: B1 VH with Y101H, H102G, H105F, V108H
VL: B1 VL with H35G, K36H, H98Y
notes: IgG; also called Ab80
B26: SAD10318_P03_D09 (ADI-48610) (antibody, V domains shown)
VH: B1 VH with Y33H, Y101H, H105F
VL: B1 VL with H35G, Y38H
notes: IgG; also called Ab206

Target: T1, human CD3 on CD3+ Jurkat cells (human, UniProt P07766 23-207)
T1 construct: whole, on cells; Native CD3 complex on cells; the other CD3 chains are not specified for this assay; also called Human CD3+ Jurkat
Test: flow cytometry on CD3+ Jurkat cells, ratio of MFI at pH 6.0 to pH 7.4
Method: (§1) Specificity of the anti-CD3 antibodies for human CD3+ Jurkat cells compared to CHO-S cells at pH 6.0 and 7.4 was determined using a FACS cell binding assay. Briefly, CD3+ human Jurkat cells and CHO-S cells were thawed and washed with cold PBSF buffer, pH 7.4 (PBS+0.1% BSA, pH 7.4). About 200,000 cells were aliquoted per well of a 96-well plate and pelleted by centrifugation (5 minutes at 500×g). The cells were washed with either PBSF pH 7.4 or PBSF pH 6.0 (PBS+0.1% BSA, pH 6.0), and then resuspended in 100 ul in either PBSF pH 7.4 or PBSF pH 6.0 with IgG antibody produced in yeast (100 nM). The mixture (cells+antibody) was incubated for 20 minutes on ice, then washed twice with either PBSF pH 7.4 or PBSF pH 6.0. Cells were resuspended in 50 ul of propidium iodide (1:500 dilution) and anti-human IgG-RPE (1:100 dilution) prepared in either PBSF pH 7.4 or PBSF pH 6.0, then incubated for 20 minutes on ice in the dark before cells were washed twice with either PBSF pH 7.4 or PBSF pH 6.0. Binding was analyzed on FACS Canto II.
(§2) Cell binding assays. CD3+ human Jurkat cells (ATCC) and CHO-S cells (Invitrogen/ThermoFisher) were thawed and washed with cold PBSF buffer, pH 7.4 (PBS+0.1% BSA, pH 7.4). About 200,000 cells were aliquoted per well of a 96-well plate (FACS Assay Plate VWR BD 353263) and pelleted by centrifugation (5 minutes at 500×g). The cells were washed with either PBSF pH 7.4 or PBSF pH 6.0 (PBS+0.1% BSA, pH 6.0), and then resuspended in 100 ul in either PBSF pH 7.4 or PBSF pH 6.0 with IgG antibody (100 nM) produced in yeast as described above. The mixture (cells+antibody) was incubated for 20 minutes on ice, then washed twice with either PBSF pH 7.4 or PBSF pH 6.0. Cells were resuspended in 50 ul of propidium iodide (Roche; 1:500 dilution) and anti-human IgG-RPE (Southern Biotech; 1:100 dilution) prepared in either PBSF pH 7.4 or PBSF pH 6.0, then incubated for 20 minutes on ice in the dark before cells were washed twice with either PBSF pH 7.4 or PBSF pH 6.0. Binding was analyzed on FACS Canto II.

T1 sequence (P07766 23-207): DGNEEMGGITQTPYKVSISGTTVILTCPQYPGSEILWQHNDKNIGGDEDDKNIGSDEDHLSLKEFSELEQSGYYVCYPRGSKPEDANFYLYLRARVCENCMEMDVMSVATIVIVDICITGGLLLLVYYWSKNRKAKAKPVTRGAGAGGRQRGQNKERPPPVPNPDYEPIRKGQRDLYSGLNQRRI

| MFI pH 6.0/MFI pH 7.4 | Binder |
| --- | --- |
| 38.4 | B1 |
| 73.1 | B2 |
| 1.2 | B3 |
| 31.6 | B4 |
| 23.9 | B5 |
| 8.6 | B6 |
| 0.6 | B7 |
| 83.3 | B8 |
| 4.5 | B9 |
| 8.5 | B10 |
| 22.5 | B11 |
| 4.7 | B12 |
| 11.7 | B13 |
| 9.3 | B14 |
| 20.1 | B15 |
| 1.9 | B16 |
| 2.2 | B17 |
| 2.3 | B18 |
| 24.3 | B19 |
| 6.8 | B20 |
| 60.3 | B21 |
| 3.5 | B22 |
| 39.4 | B23 |
| 3.2 | B24 |
| 11 | B25 |
| 5 | B26 |

Target: T1, human CD3 on CD3+ Jurkat cells
Test: flow cytometry, 100 nM IgG on CD3+ Jurkat cells, pH 7.4
Method: as §1, §2

| MFI pH 7.4 [MFI] | Binder |
| --- | --- |
| 81 | B1 |
| 73 | B2 |
| 4960 | B3 |
| 140 | B4 |
| 91 | B5 |
| 33 | B6 |
| 828 | B7 |
| 59 | B8 |
| 45 | B9 |
| 45 | B10 |
| 41 | B11 |
| 43 | B12 |
| 36 | B13 |
| 37 | B14 |
| 42 | B15 |
| 2990 | B16 |
| 1340 | B17 |
| 583 | B18 |
| 45 | B19 |
| 306 | B20 |
| 32 | B21 |
| 51 | B22 |
| 96 | B23 |
| 1320 | B24 |
| 475 | B25 |
| 72 | B26 |

Target: T1, human CD3 on CD3+ Jurkat cells
Test: flow cytometry, 100 nM IgG on CD3+ Jurkat cells, pH 6.0
Method: as §1, §2

| MFI pH 6.0 [MFI] | Binder |
| --- | --- |
| 3110 | B1 |
| 5370 | B2 |
| 5980 | B3 |
| 4430 | B4 |
| 2180 | B5 |
| 279 | B6 |
| 500 | B7 |
| 4940 | B8 |
| 203 | B9 |
| 381 | B10 |
| 933 | B11 |
| 199 | B12 |
| 418 | B13 |
| 346 | B14 |
| 849 | B15 |
| 5810 | B16 |
| 2900 | B17 |
| 1320 | B18 |
| 1090 | B19 |
| 2070 | B20 |
| 1950 | B21 |
| 177 | B22 |
| 3780 | B23 |
| 4260 | B24 |
| 5240 | B25 |
| 361 | B26 |
